How the values were obtained:
Experiment in all cases: cryo-EM structure
PRIM2 = molecular target: T1, PRIM2 (human, UniProt P49643-1 1-509)
T1 sequence (looked up): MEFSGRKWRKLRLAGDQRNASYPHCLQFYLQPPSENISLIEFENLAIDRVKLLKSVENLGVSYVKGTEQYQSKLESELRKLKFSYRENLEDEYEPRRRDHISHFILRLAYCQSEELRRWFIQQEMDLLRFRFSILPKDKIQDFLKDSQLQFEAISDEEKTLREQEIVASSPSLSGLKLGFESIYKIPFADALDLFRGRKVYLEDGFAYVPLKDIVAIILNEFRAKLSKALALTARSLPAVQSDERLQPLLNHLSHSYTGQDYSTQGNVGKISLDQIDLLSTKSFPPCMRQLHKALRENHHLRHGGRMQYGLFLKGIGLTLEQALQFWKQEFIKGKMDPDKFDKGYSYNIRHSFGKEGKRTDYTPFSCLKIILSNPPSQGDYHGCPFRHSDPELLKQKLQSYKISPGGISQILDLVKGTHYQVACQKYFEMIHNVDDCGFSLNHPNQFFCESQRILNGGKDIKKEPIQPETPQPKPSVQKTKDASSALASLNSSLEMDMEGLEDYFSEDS

STN1 = molecular target: T2, STN1 (human, UniProt Q9H668 2-368)
T2 sequence: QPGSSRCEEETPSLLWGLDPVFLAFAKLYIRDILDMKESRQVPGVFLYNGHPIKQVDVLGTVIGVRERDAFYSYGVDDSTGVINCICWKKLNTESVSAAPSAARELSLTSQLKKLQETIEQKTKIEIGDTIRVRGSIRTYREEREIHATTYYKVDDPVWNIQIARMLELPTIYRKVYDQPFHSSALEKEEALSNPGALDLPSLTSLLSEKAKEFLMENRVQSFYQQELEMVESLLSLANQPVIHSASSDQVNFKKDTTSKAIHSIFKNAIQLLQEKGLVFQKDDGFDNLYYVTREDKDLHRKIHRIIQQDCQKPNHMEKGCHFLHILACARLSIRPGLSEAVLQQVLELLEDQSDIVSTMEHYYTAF

POLA2 = molecular target: T3, POLA2 (human, UniProt Q14181-1 1-598)
T3 sequence (looked up): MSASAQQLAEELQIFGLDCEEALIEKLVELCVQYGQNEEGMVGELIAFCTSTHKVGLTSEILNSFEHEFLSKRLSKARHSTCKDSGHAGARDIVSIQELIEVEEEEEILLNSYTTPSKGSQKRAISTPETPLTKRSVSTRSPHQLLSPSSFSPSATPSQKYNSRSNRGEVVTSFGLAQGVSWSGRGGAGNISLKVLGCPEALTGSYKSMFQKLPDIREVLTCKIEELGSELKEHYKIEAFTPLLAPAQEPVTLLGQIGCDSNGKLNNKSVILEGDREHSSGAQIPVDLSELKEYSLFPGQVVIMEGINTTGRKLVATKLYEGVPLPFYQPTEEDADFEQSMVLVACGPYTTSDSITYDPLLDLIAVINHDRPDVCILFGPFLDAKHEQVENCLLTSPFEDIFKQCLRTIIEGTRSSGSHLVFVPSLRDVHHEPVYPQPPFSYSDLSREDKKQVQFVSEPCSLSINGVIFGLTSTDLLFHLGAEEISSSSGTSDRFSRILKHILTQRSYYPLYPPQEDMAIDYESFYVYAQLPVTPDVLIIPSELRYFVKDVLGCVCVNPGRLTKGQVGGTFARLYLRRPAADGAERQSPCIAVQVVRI

PRIM1 = molecular target: T4, PRIM1 (human, UniProt P49642 2-420)
T4 sequence: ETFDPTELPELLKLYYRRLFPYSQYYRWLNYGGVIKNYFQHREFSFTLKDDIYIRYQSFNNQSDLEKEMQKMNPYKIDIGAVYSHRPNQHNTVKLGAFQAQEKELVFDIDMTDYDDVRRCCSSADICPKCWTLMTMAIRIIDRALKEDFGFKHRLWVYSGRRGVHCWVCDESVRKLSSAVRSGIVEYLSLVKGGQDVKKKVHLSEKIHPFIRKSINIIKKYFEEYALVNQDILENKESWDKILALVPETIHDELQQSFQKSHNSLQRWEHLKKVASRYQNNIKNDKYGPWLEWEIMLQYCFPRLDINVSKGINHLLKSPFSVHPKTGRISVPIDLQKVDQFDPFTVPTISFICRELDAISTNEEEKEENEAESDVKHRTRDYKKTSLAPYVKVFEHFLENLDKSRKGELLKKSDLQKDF

binding result (PRIM2): binds | binding result (STN1): binds | binding result (POLA2): binds | binding result (PRIM1): binds
B1: TEN1 (natural protein, human)
chain: LPKPGTYYLPWEVSAGQVPDGSTLRTFGRLCLYDMIQSRVTLMAQHGSDQHQVLVCTKLVEPFHAQVGSLYIVLGELQHQQDRGSVVKARVLTCVEGMNLPLLEQAIREQRLYKQERGGSQ

Reference: publication PMC10268231 (Nature, 2021)
